Laboratory results taken from US20080182299A1.

Tests used:
[1] = biological target: Mouse monoclonal antibody clone 13A3.G6.H1, lot #18881C, raised against CGEN3901 (SEQ ID NO:50); experiment: antigen capture competitive ELISA format #4, repeatability tests
[2] = biological target: Mouse monoclonal antibody clone 13A3.G6.H1, lot #18881C, raised against CGEN3901 (SEQ ID NO:50); experiment: antigen capture competitive ELISA format #4; coat CgenBNP_49; detector 13A3.G6.H1; free peptide spiked in serum as competitor
[3] = biological target: Mouse monoclonal antibody clone 13A3.G6.H1, lot #18881C, raised against CGEN3901 (SEQ ID NO:50); experiment: antibody capture competitive ELISA format #5; coat 13A3.G6.H1; tracer biotin-labeled CgenBNP_29; unlabeled peptide as competitor

LOD [1] [ng/mL] | LOD [2] [ng/mL] | LOD [3] [ng/mL] | Binder
1 to 3 | 0.6 |  | H-HPLGSPGSASDLETSGLQVRAEGSSGGLDSSNERVLTCCPKRPSSFLWN-OH (cysteine pairing not given here) [HPWN49 (also called herein CgenBNP_49, SEQ ID NO: 49)]
1 to 3 | 0.3 | 5 | AEGSSGGLDSSNERVLTCCPKRPSSFLWN [AEWN 29 (also called herein CgenBNP_29, SEQ ID NO: 48)]
